# Measurements: IntAct's records for PubMed 35512704
# B1: Speckle-type POZ protein (Homo sapiens), O43791 (parent)
# chain: MSRVPSPPPPAEMSSGPVAESWCYTQIKVVKFSYMWTINNFSFCREEMGEVIKSSTFSSGANDKLKWCLRVNPKGLDEESKDYLSLYLLLVSCPKSEVRAKFKFSILNAKGEETKAMESQRAYRFVQGKDWGFKKFIRRDFLLDEANGLLPDDKLTLFCEVSVVQDSVNISGQNTMNMVKVPECRLADELGGLWENSRFTDCCLCVAGQEFQAHKAILAARSPVFSAMFEHEMEESKKNRVEINDVEPEVFKEMMCFIYTGKAPNLDKMADDLLAAADKYALERLKVMCEDALCSNLSVENAAEILILADLHSADQLKTQAVDFINYHASDVLETSGWKSMVVSHPHLVAEAYRSLASAQCPFLGPPRKRLKQS
# partner: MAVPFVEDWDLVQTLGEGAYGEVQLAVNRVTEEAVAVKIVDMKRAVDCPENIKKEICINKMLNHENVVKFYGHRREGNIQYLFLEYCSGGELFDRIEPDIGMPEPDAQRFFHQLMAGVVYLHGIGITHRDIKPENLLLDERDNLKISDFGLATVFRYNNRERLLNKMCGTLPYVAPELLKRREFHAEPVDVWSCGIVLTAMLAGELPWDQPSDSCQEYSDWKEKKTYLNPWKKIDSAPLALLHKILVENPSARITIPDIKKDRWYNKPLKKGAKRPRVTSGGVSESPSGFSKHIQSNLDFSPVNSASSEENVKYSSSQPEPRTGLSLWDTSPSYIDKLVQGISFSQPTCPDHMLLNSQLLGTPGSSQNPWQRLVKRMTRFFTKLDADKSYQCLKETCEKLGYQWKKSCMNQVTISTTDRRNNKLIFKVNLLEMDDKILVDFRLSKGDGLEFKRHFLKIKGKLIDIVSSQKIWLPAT
# B2: Mothers against decapentaplegic homolog 4 (Homo sapiens), Q13485 (parent)
# chain: MDNMSITNTPTSNDACLSIVHSLMCHRQGGESETFAKRAIESLVKKLKEKKDELDSLITAITTNGAHPSKCVTIQRTLDGRLQVAGRKGFPHVIYARLWRWPDLHKNELKHVKYCQYAFDLKCDSVCVNPYHYERVVSPGIDLSGLTLQSNAPSSMMVKDEYVHDFEGQPSLSTEGHSIQTIQHPPSNRASTETYSTPALLAPSESNATSTANFPNIPVASTSQPASILGGSHSEGLLQIASGPQPGQQQNGFTGQPATYHHNSTTTWTGSRTAPYTPNLPHHQNGHLQHHPPMPPHPGHYWPVHNELAFQPPISNHPAPEYWCSIAYFEMDVQVGETFKVPSSCPIVTVDGYVDPSGGDRFCLGQLSNVHRTEAIERARLHIGKGVQLECKGEGDVWVRCLSDHAVFVQSYYLDREAGRAPGDAVHKIYPSAYIKVFDLRQCHRQMQQQAATAQAAAAAQAAAVAGNIPGPGSVGGIAPAISLSAAAGIGVDDLRRLCILRMSFVKGWGPDYPRQSIKETPCWIEIHLHRALQLLDEVLHTMPIADPQPLD
# partner: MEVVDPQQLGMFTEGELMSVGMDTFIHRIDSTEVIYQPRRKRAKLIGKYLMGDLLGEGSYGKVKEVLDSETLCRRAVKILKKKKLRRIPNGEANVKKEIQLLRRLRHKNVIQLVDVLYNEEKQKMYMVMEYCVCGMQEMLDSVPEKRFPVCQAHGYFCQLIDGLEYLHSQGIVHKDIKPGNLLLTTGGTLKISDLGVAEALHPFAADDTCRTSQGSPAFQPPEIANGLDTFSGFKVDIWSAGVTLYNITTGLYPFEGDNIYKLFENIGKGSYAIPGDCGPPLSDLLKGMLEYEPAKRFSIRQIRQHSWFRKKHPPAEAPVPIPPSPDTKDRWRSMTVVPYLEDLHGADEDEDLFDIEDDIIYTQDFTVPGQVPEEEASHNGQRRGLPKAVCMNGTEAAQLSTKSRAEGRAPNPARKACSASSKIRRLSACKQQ
# B3: Speckle-type POZ protein (Homo sapiens), O43791 (parent)
# chain: B1 chain
# partner: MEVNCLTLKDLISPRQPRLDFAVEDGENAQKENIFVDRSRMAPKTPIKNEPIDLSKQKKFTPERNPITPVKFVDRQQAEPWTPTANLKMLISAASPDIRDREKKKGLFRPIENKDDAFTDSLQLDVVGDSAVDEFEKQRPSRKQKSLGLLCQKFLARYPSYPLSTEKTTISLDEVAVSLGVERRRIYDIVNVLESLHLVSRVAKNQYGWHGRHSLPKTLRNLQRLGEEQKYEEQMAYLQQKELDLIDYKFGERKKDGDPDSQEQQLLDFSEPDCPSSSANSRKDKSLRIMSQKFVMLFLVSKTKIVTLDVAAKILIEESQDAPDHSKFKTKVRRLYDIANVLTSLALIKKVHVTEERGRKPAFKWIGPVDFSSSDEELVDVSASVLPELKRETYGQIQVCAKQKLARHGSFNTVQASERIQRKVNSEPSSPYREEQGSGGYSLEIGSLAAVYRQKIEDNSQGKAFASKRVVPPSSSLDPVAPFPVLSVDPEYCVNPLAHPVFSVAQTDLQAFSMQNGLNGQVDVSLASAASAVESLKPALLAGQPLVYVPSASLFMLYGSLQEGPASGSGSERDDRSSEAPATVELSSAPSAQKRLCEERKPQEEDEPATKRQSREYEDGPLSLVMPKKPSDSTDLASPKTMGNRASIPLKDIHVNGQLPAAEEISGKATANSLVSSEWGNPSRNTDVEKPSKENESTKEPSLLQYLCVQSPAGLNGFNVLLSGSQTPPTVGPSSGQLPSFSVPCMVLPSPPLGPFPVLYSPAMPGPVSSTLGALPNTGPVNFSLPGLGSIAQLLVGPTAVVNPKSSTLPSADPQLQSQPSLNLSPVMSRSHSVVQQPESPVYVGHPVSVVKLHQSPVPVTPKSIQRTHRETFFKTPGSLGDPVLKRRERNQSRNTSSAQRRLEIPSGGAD
# B4: Mothers against decapentaplegic homolog 4 (Homo sapiens), Q13485 (parent)
# chain: B2 chain
# partner: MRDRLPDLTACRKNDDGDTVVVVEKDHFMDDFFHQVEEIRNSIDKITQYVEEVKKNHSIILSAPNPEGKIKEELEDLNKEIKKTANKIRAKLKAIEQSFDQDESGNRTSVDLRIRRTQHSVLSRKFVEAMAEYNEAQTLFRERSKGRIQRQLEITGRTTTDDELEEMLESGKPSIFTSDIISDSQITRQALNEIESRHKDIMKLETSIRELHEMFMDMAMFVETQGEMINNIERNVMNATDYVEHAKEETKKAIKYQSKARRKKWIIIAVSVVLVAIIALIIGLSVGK
# B5: Mothers against decapentaplegic homolog 4 (Homo sapiens), Q13485 (parent)
# chain: B2 chain
# partner: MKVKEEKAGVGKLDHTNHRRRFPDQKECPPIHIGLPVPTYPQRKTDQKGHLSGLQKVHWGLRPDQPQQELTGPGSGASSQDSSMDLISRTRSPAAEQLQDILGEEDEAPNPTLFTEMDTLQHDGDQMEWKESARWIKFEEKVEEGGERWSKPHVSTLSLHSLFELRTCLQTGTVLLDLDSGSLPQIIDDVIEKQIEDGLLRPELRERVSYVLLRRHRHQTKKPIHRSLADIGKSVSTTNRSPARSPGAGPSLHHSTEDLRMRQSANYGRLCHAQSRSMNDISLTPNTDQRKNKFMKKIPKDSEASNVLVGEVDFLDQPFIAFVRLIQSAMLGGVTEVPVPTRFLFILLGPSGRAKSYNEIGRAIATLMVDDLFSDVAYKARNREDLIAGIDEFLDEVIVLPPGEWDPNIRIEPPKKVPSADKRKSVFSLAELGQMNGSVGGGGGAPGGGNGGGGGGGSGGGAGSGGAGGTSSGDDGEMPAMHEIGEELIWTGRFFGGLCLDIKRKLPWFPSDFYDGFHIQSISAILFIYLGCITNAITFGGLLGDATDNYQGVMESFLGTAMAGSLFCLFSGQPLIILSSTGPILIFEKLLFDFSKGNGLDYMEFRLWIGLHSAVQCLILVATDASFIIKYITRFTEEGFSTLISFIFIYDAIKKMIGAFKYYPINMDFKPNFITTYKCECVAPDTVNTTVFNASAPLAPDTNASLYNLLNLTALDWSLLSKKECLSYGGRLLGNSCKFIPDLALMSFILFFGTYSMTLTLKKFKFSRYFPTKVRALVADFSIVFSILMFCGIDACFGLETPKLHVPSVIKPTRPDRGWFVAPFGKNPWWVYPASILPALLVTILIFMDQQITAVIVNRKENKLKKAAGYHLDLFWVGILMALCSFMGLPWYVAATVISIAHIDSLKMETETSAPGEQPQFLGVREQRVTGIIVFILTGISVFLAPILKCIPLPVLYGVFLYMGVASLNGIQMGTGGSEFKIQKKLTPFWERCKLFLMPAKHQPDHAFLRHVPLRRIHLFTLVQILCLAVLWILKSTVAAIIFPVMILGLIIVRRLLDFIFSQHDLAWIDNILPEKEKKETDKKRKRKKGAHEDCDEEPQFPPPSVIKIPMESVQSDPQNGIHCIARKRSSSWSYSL
# B6: Mothers against decapentaplegic homolog 4 (Homo sapiens), Q13485 (parent)
# chain: B2 chain
# partner: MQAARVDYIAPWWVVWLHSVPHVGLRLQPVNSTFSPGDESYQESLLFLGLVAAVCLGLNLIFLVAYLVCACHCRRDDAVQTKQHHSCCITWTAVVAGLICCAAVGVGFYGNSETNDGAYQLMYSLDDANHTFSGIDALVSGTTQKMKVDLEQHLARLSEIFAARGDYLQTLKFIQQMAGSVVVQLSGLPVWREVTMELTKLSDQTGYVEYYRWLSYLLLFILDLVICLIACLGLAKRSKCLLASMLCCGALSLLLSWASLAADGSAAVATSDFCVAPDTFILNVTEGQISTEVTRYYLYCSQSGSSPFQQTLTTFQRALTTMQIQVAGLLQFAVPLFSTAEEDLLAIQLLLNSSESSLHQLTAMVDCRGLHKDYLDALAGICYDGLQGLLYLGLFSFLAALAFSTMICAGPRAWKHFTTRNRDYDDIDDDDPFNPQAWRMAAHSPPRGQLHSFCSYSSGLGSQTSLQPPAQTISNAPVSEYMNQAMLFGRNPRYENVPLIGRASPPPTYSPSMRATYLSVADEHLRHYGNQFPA
# Variants of: B1
# Conditions: with chk1_human CHEK1, O14757
row,Variant,effect of a mutation on the interaction
1,F133V,with no effect

# Variants of: B1
# Conditions: with chk1_human CHEK1, O14757
# Remark: another data set of the same source
row,Variant,effect of a mutation on the interaction
1,F133L,with no effect

# Variants of: B1
# Conditions: with chk1_human CHEK1, O14757
# Remark: another data set of the same source
row,Variant,effect of a mutation on the interaction
1,F102C,with no effect

# Variants of: B2
# Conditions: with stk11_human STK11, Q15831
row,Variant,effect of a mutation on the interaction
1,G386D,with no effect

# Variants of: B3
# Conditions: with e2f7_human E2F7, Q96AV8
row,Variant,effect of a mutation on the interaction
1,F133L,with no effect

# Variants of: B3
# Conditions: with e2f7_human E2F7, Q96AV8
# Remark: another data set of the same source
row,Variant,effect of a mutation on the interaction
1,F133V,with no effect

# Variants of: B3
# Conditions: with e2f7_human E2F7, Q96AV8
# Remark: another data set of the same source
row,Variant,effect of a mutation on the interaction
1,F102C,with no effect

# Variants of: B3
# Conditions: with e2f7_human E2F7, Q96AV8
# Remark: another data set of the same source
row,Variant,effect of a mutation on the interaction
1,Y87C,with no effect

# Variants of: B4
# Conditions: with stx2_human STX2, P32856
row,Variant,effect of a mutation on the interaction
1,G386D,with no effect

# Variants of: B5
# Conditions: with s4a5_human SLC4A5, Q9BY07
row,Variant,effect of a mutation on the interaction
1,R361C,with no effect

# Variants of: B5
# Conditions: with s4a5_human SLC4A5, Q9BY07
# Remark: another data set of the same source
row,Variant,effect of a mutation on the interaction
1,G386D,with no effect

# Variants of: B6
# Conditions: with ttyh2_human TTYH2, Q9BSA4
row,Variant,effect of a mutation on the interaction
1,G386D,with no effect
